B1: HEEH_KT_rd6_0007 (parent)
chain: SIEEEIKKAEEAKEKGKTFIHGDFVATTEELLDELLKRLRKKL

Variants of: B1
Assay: folding stability dG (cDNA display proteolysis); higher = more stable
Settings: PBS, room temperature

Going from SIEEIIKKAEEAKEKGKTFIHGDFVATTEELLDELLKRLRKKL [E5I] to SIEETIKKAEEAKEKGKTFIHGDFVATTEELLDELLKRLRKKL [E5T], the “folding stability dG” value falls from 2.4 kcal/mol to 1.84 kcal/mol.

Going from SIEESIKKAEEAKEKGKTFIHGDFVATTEELLDELLKRLRKKL [E5S] to SIEEKIKKAEEAKEKGKTFIHGDFVATTEELLDELLKRLRKKL [E5K], the “folding stability dG” value falls from 1.31 kcal/mol to 1.06 kcal/mol.

Compared with SIEENIKKAEEAKEKGKTFIHGDFVATTEELLDELLKRLRKKL [E5N], SIMEEIKKAEEAKEKGKTFIHGDFVATTEELLDELLKRLRKKL [E3M] is higher in “folding stability dG” value: 1.05 kcal/mol for the first, 1.45 kcal/mol for the second.

Going from SINEEIKKAEEAKEKGKTFIHGDFVATTEELLDELLKRLRKKL [E3N] to SIREEIKKAEEAKEKGKTFIHGDFVATTEELLDELLKRLRKKL [E3R], the “folding stability dG” value rises from 0.919 kcal/mol to 1.2 kcal/mol.

Compared with SIKEEIKKAEEAKEKGKTFIHGDFVATTEELLDELLKRLRKKL [E3K], SIHEEIKKAEEAKEKGKTFIHGDFVATTEELLDELLKRLRKKL [E3H] is lower in “folding stability dG” value: 1.16 kcal/mol for the first, 1.12 kcal/mol for the second.

Going from SITEEIKKAEEAKEKGKTFIHGDFVATTEELLDELLKRLRKKL [E3T] to SIFEEIKKAEEAKEKGKTFIHGDFVATTEELLDELLKRLRKKL [E3F], the “folding stability dG” value rises from 1.04 kcal/mol to 1.23 kcal/mol.

First: SIPEEIKKAEEAKEKGKTFIHGDFVATTEELLDELLKRLRKKL [E3P]
Second: SIYEEIKKAEEAKEKGKTFIHGDFVATTEELLDELLKRLRKKL [E3Y]
The “folding stability dG” value of the first is lower: 0.866 kcal/mol for the first, 1.28 kcal/mol for the second.

Compared with SISEEIKKAEEAKEKGKTFIHGDFVATTEELLDELLKRLRKKL [E3S], SIAEEIKKAEEAKEKGKTFIHGDFVATTEELLDELLKRLRKKL [E3A] is higher in “folding stability dG” value: 1.07 kcal/mol for the first, 1.27 kcal/mol for the second.

First: SIDEEIKKAEEAKEKGKTFIHGDFVATTEELLDELLKRLRKKL [E3D]
Second: SILEEIKKAEEAKEKGKTFIHGDFVATTEELLDELLKRLRKKL [E3L]
The “folding stability dG” value of the first is lower: 1.01 kcal/mol for the first, 1.52 kcal/mol for the second.

Going from SIWEEIKKAEEAKEKGKTFIHGDFVATTEELLDELLKRLRKKL [E3W] to SIIEEIKKAEEAKEKGKTFIHGDFVATTEELLDELLKRLRKKL [E3I], the “folding stability dG” value falls from 1.7 kcal/mol to 1.36 kcal/mol.

Compared with SIVEEIKKAEEAKEKGKTFIHGDFVATTEELLDELLKRLRKKL [E3V], SIQEEIKKAEEAKEKGKTFIHGDFVATTEELLDELLKRLRKKL [E3Q] is lower in “folding stability dG” value: 1.24 kcal/mol for the first, 1.22 kcal/mol for the second.

Going from SIGEEIKKAEEAKEKGKTFIHGDFVATTEELLDELLKRLRKKL [E3G] to SWEEEIKKAEEAKEKGKTFIHGDFVATTEELLDELLKRLRKKL [I2W], the “folding stability dG” value rises from 0.881 kcal/mol to 1.04 kcal/mol.

Going from SGEEEIKKAEEAKEKGKTFIHGDFVATTEELLDELLKRLRKKL [I2G] to SLEEEIKKAEEAKEKGKTFIHGDFVATTEELLDELLKRLRKKL [I2L], the “folding stability dG” value rises from 0.715 kcal/mol to 1.47 kcal/mol.

First: SMEEEIKKAEEAKEKGKTFIHGDFVATTEELLDELLKRLRKKL [I2M]
Second: STEEEIKKAEEAKEKGKTFIHGDFVATTEELLDELLKRLRKKL [I2T]
The “folding stability dG” value of the first is higher: 0.866 kcal/mol for the first, 0.763 kcal/mol for the second.

First: SAEEEIKKAEEAKEKGKTFIHGDFVATTEELLDELLKRLRKKL [I2A]
Second: SEEEEIKKAEEAKEKGKTFIHGDFVATTEELLDELLKRLRKKL [I2E]
The “folding stability dG” value of the first is higher: 0.756 kcal/mol for the first, 0.545 kcal/mol for the second.

First: SVEEEIKKAEEAKEKGKTFIHGDFVATTEELLDELLKRLRKKL [I2V]
Second: SSEEEIKKAEEAKEKGKTFIHGDFVATTEELLDELLKRLRKKL [I2S]
The “folding stability dG” value of the first is higher: 1.08 kcal/mol for the first, 0.818 kcal/mol for the second.

Going from SYEEEIKKAEEAKEKGKTFIHGDFVATTEELLDELLKRLRKKL [I2Y] to SREEEIKKAEEAKEKGKTFIHGDFVATTEELLDELLKRLRKKL [I2R], the “folding stability dG” value falls from 0.989 kcal/mol to 0.776 kcal/mol.

First: SKEEEIKKAEEAKEKGKTFIHGDFVATTEELLDELLKRLRKKL [I2K]
Second: SQEEEIKKAEEAKEKGKTFIHGDFVATTEELLDELLKRLRKKL [I2Q]
The “folding stability dG” value of the first is lower: 0.732 kcal/mol for the first, 0.766 kcal/mol for the second.

Going from SFEEEIKKAEEAKEKGKTFIHGDFVATTEELLDELLKRLRKKL [I2F] to SDEEEIKKAEEAKEKGKTFIHGDFVATTEELLDELLKRLRKKL [I2D], the “folding stability dG” value falls from 0.811 kcal/mol to 0.705 kcal/mol.

Compared with SHEEEIKKAEEAKEKGKTFIHGDFVATTEELLDELLKRLRKKL [I2H], SPEEEIKKAEEAKEKGKTFIHGDFVATTEELLDELLKRLRKKL [I2P] is higher in “folding stability dG” value: 0.643 kcal/mol for the first, 0.683 kcal/mol for the second.

First: SNEEEIKKAEEAKEKGKTFIHGDFVATTEELLDELLKRLRKKL [I2N]
Second: RIEEEIKKAEEAKEKGKTFIHGDFVATTEELLDELLKRLRKKL [S1R]
The “folding stability dG” value of the first is lower: 0.583 kcal/mol for the first, 1.27 kcal/mol for the second.

Going from GIEEEIKKAEEAKEKGKTFIHGDFVATTEELLDELLKRLRKKL [S1G] to QIEEEIKKAEEAKEKGKTFIHGDFVATTEELLDELLKRLRKKL [S1Q], the “folding stability dG” value falls from 1.11 kcal/mol to 1.07 kcal/mol.

Compared with EIEEEIKKAEEAKEKGKTFIHGDFVATTEELLDELLKRLRKKL [S1E], FIEEEIKKAEEAKEKGKTFIHGDFVATTEELLDELLKRLRKKL [S1F] is higher in “folding stability dG” value: 1.11 kcal/mol for the first, 1.23 kcal/mol for the second.

First: AIEEEIKKAEEAKEKGKTFIHGDFVATTEELLDELLKRLRKKL [S1A]
Second: DIEEEIKKAEEAKEKGKTFIHGDFVATTEELLDELLKRLRKKL [S1D]
The “folding stability dG” value of the first is lower: 1.21 kcal/mol for the first, 1.24 kcal/mol for the second.

Going from MIEEEIKKAEEAKEKGKTFIHGDFVATTEELLDELLKRLRKKL [S1M] to TIEEEIKKAEEAKEKGKTFIHGDFVATTEELLDELLKRLRKKL [S1T], the “folding stability dG” value rises from 1.16 kcal/mol to 1.28 kcal/mol.

Going from PIEEEIKKAEEAKEKGKTFIHGDFVATTEELLDELLKRLRKKL [S1P] to YIEEEIKKAEEAKEKGKTFIHGDFVATTEELLDELLKRLRKKL [S1Y], the “folding stability dG” value rises from 1.01 kcal/mol to 1.36 kcal/mol.

Going from IIEEEIKKAEEAKEKGKTFIHGDFVATTEELLDELLKRLRKKL [S1I] to KIEEEIKKAEEAKEKGKTFIHGDFVATTEELLDELLKRLRKKL [S1K], the “folding stability dG” value rises from 0.975 kcal/mol to 1.14 kcal/mol.

First: NIEEEIKKAEEAKEKGKTFIHGDFVATTEELLDELLKRLRKKL [S1N]
Second: LIEEEIKKAEEAKEKGKTFIHGDFVATTEELLDELLKRLRKKL [S1L]
The “folding stability dG” value of the first is lower: 1.19 kcal/mol for the first, 1.23 kcal/mol for the second.

First: WIEEEIKKAEEAKEKGKTFIHGDFVATTEELLDELLKRLRKKL [S1W]
Second: HIEEEIKKAEEAKEKGKTFIHGDFVATTEELLDELLKRLRKKL [S1H]
The “folding stability dG” value of the first is higher: 1.78 kcal/mol for the first, 1.13 kcal/mol for the second.

With VIEEEIKKAEEAKEKGKTFIHGDFVATTEELLDELLKRLRKKL [S1V] the “folding stability dG” value was 1.01 kcal/mol.
